Patent EP3636665A1 (dated 2020)

Legend:
[1] = molecular target: T1, MAGE-A1 and a second family member (printed 'MRGE-A1/R4') peptide on HLA-DPB1*04:01 (human); test: cytokine release
T1 peptide: QDLVQEKYLEY

[2] = molecular target: T2, MAGE-A3 peptide on HLA-DPB1*04:01 (human); test: cytokine release
T2 peptide: KKLLTQHFVQENY

B1: 6F9 TCR (TCR, V domains shown)
Valpha: AQTVTQSQPEMSVQEAETVTLSCTYDTSESDYYLFWYKQPPSRQMILVIRQEAYKQQNATENRFSVNFQKAAKSFSLKISDSQLGDAAMYFCALRSSGTYKYIFGTGTRLKVLA
Vbeta: GAGVSQSPSNKVTEKGKDVELRCDPISGHTALYWYRQSLGQGLEFLIYFQGNSAPDKSGLPSDRFSAERTGGSVSTLTIQRTQQEDSAVYLCASIRTGPFFSGNTIYFGEGSWLTVV
B1: no recognition [1]; no recognition [2].
